Measured values from the nanobody polyreactivity screen of Harvey et al. (2022).

assay: yeast display, Sf9 membrane polyspecificity reagent, FACS + sequencing; frameworks hold sequencing errors
In short: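 A synthetic nanobody library was expressed on Saccharomyces cerevisiae BJ5465 by galactose induction for 36–48 hours. The library was stained for 1 hour at 4 °C with 10% biotinylated, detergent-solubilized Sf9 membrane reagent and enriched with streptavidin microbeads before FACS. Low and high (top ~1%) gates were set on anti-HA fluorescence for expression and streptavidin fluorescence for reagent binding, and each polyreactivity label reflects the gate of origin.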

Sequence | polyreactivity (PSR sort gate)
QVQLVESGGGLVQAGGSLRLSCAASGYIILLYAMGWYRQAPGKERELVAAISTRDGSTYYADSVKGRFTISRDNGKITVYLQMNSLNPEDTAVYYCATLYYYNYCGQGTQVTVSS | high polyreactivity
QVQLVESGGGLVQAGGSLRLSCAASGFTFSPYTMGWYRQAPGKEWELVATIRYDGTSTYYADSVKGRFTISRDNAKNTVFLQMNSLKPEDTEVYYCAADIWRVYSTIYYWGQGTQVTVSS | low polyreactivity
QVQLVESGGGLVQAGGSLRLSCAASGRTFYKNTMGWYRQAPGKERELVATISQRGGSTYYADSVKGRFTISRDNAKNTVYLQMNSLKPEDTAVYYCNARRTSYTSQGYDYWGQGTQVTVSS | high polyreactivity
QVQLVESGGGLVQAGGSLRLSCAASGRIFYYNGMGWYRQAPGKERELVAAITANGGSTYYADSVKGRFTISRDNAKHTVYLQMNSLKPEDTAVYYCAAVYQLYYSAGRGYDYWGQGTQVTVSS | high polyreactivity
QVQLVESGGGLVQAGGSLRLSCAASGRIFGWYAMGWYRQAPGKERELVAAISRGGGSTYYADSVKGRFTISRDNAKNTVYLQMNSLKPEDTAVYYCARDGGSLSHYHVGTGKFGYWGQGTQVTVSS | low polyreactivity
QVQLVESGGGLVQAGGSLRLSCAASGSTFSGNAMGWYRQAPGKERELVAAISQSGGSTYYADSVKGRFTISRDNAKNTVYLQMNSLKPEDTAVYYCNRLYYFLARRMDSWGQGTQVTVSS | high polyreactivity
QVQLVESGGGLVQAGGSLRLSCAASGRTFKYYAMGWYRQAPGKERELVAAISRSGGSTYYADSVKGRFTISRDNAKNTVYLQMNSLKPEDTAVYYCNAEYLWIRHIAEDYWGQGTQVTVSS | low polyreactivity
QVQLVESGGGLVQAGGSLRLSCAASGINFDGNVMGWYRPAPRKEREFFASISISGGSTSYADSVKGRFTISRDNAKNTVYLQMNSLKPEDTAVYYCNTDVCYGRVWRWRFHGDYWGQGTQVTVSS | low polyreactivity
QVQLVESGGGLVQAGGSLRLSCAASGIIYWVNAMGWYRQAPGKERELVAVINRGTYYADSVKGRFTISRDNAKNTVYLQMNSLKPEDTAVYYRYAYTSTTEYDYWGLGTQVTVSS | low polyreactivity
QVQLVESGGGLVKAGGSLRLSCAASGSIIGFYAMGWYILAPGKERELVAAITRGGGSTFYADSVKGRFTFSRDNAKNTVYLQMNSLKPEDTAVYYCAATVYRYHGPGYYYWGQGTQVTVSS | high polyreactivity
QVQLVESGGGLVQAGGSLRLSCAASGSTFKTYTMGWYRQAPGKERELVAGITSGGSTSYADSVKGRFTISRDNAKNTVYLQMNSLKPEDTAVYYCAADTSYDSYEYWGQGTQVTVSS | low polyreactivity
QVQLVESGGGLVQAGGSLRLSCAASGFTFYYYAMGLYRQAPGKERELVAAITYSGGSTYYADSVKGRFTISRDNAKNTVYLQMNSLKPEDTAVYYCAAEAIPRLSWWYGVDYWGQGTQVTVSS | low polyreactivity
QVQLQESGGGLVQASGSLRLSCAASGNIFPDYFMGWYRLATGKEREFVANITGGSTTNYADSVKGRFTISRDNANNTVYLQIYSLKPEDTAVYYCAVYFGTVQHAYWGQGTQVTVSS | high polyreactivity
QVHLVESGGGLVQAGGSLRLSCAASGFIFFYYAMGWYRQAPGTERELVAAISRSGGSTYYADSVKGRFTISRDNAKNTVYFQMNSLKPEDTAVYYCAAVWPVIYGMDYWGQGTQVTVSS | high polyreactivity
QVQLVESGGGLVQAGGSLRLSCAASGSNFLGNAMGWSIQAPGKERELVAAISSITGRTYYADSVKGRFTISRDNAKNTVYLQMNSLKPEDTAVYYCAAVQGANYYNEFDYWGQGTQVTVSS | high polyreactivity
QVQLVESGGGLVQAGGSLRLSCAASGITFLVYVMGWYRQAPGKERELVAAISSGGSTYYADSVKGRFTISRDNAKNTVYVQMNSLKPEDTAVYYCAAERKLYGLYDYWGQGTQVTVSS | low polyreactivity
QVQLVESGGGLVQAGGSLRLSCAASGFIFRWYTLGWYRQAPGKERELVAAISRSGGSTYYADSVKGRFTISRDNAKNTVYLQMNSLKPEDTAVYYCNAYDHPIYRLDYWGQGTQVTVSS | high polyreactivity
QVQHVESGGGVVQAGGSLRLSCAASGSIFSRYTMGWYRQAPGKERELVAAITSSGGRTYYADSVKGRFTISRDNAKNTVYLQMNSLKPEDTSVYYFDARIPKQQGYGYWGQGTQVTVSS | high polyreactivity
QVQLVESGGGLVQAGGSLRLSCAASGSIFIPNAMGWYRQAPGKERELVAAISLSDTTTYYADSVKGRFTISRDNAKNTVYLKMNSLKPEDTAVYYCAADYWFYPTSPDMDYLGQGTQVTVSS | low polyreactivity
QVQLVESGGGLVEAGGSLRLSCAASGRTFANNAMGWYRQAPGKERELVARISNSGSTNYADSVKGRFTISRDNANNTVYLQMNSLNPEDTAVYYCAARIVRLYSRYDYWGQGTQVTVSS | low polyreactivity
QVQLVESGGGLVQAGGSLRLSCAASGIIFPHYAMGWYRQEPGKERELVAAITRSGGSTYYADSVKGRFTISRDNAKNTVYLQMNSLKPEDTAVYYCAAKRPVQSGGYNYWGQGTQVTVSS | high polyreactivity
QVQLVESGVRLLQAGGSLRLSCAASGRIFGVYAMGWYITAPGKERELVAAIRGGGSTKYADSVKGRFTISRDNAKNTVYLQMKSLKPEDTAVYYFAARKLYYKHDYWGQGTQVTVSS | low polyreactivity

Sequence | polyreactivity (PSR sort gate)
QVQLVDSGGGLVQAGGSLRLSCAASGFIFRYYAMGWYRQAPGTERELVAAISRSGGSTYYADSVKGRFTISRDNAKNTVYLQMYSLKPEDTAVYYCNRGDVIGRQYDSAYGYWGQGTQVTVSS | high polyreactivity
QVQLVESGGGLLQAGGSLRLSCAASGSILGPYAMGWYRQAPGKERELVAGIDATDGSTYYADSVKGRFTISRDNAKNTVYLQMNSLKPEDTAVYYCAAAPYAYYGEYNYWGQGTQVTVSS | low polyreactivity
QVQLVESGGGLVQAGGSLRLSCAASGSTFVYYTMGLYRQAPGKERELVAAISWRGDDTYYSDSVKGRFTISRDNAKNTVYLQMNSLKPEDTAVYYCAGEPVSTYYWTFGDYWGQGYQVTVSS | low polyreactivity
QVQLQESGGGLVQAGGDLRLSCAASGNIFRDYIMGWNPQAPGKEREFVAGIDRGANTNYADSVKGRFTISRDNAKNTVYLQMNSLKPEDTAVYYCAVHTAIVPDFIYWGQGTQVTVSS | low polyreactivity
QVQLVESGGGLVQAGGSLRLSCAASGRTFRTYAMGWYRQAPGKERELVAAITSGGSTYYADSVKGRFTISRDNAKNTVYLQMNSLKPEDTAVYDCAAISTWGTKYDYWGQGTQVTVSS | high polyreactivity
QVQLVESGGGLVQAGGSLRLRCAASGFTFYRKAMGWYRHAHGKERELVAAITRGGSTTYADSVKGRFTISRDNAKNTVYLQMNSLKPEDTAVYYCAVPQYLYLQAGHGYRYYYWGQGSQVTVSS | high polyreactivity
QVQLVESGGGLVQAGGSLRLSCAASGFIFWSYAMGWYRQAPGKERELVAAINTSGDSTYYADSVKGRFTISRDNAKYTVYLQMNSLKPEDTAVYSCAAKSSTRGDYWGQGTQVTVSS | low polyreactivity
QVQLVESGGGLVQAGGSLRLSCAASGRIFDNYAMGWYRQAPGKERELVAAITYIDSGTYYADSVKGRFTISRDNAKNTVYLQMNSLKPEDTAVYYCAVRLNSDSKRKTQKFGYWGQGTQVTVSS | low polyreactivity
QVQLVESGGGLVQAGGSLRLSCAASGFTFRSNAMGWYRQAPGKERELVAAISYSGDSTYYADSVKGRFTISRDNAKNTVYLQMNSLKPEDTAVYYCNAVGSGYRSWYDYWGQGTQVTVSS | high polyreactivity
QVQLVESGGGLVQAGGSLRLSCAASGLTFYYYAMGWYRQAPGKERELVAAISSVGSTYYADSVKGRFTISRDNAKNTVYLQRNSLKPEDTAVYYCAAKSYWWHEDYWGQGTQVTVSS | low polyreactivity
QVQLVESGGGLVQAGGSLRLSCAASGVIFESNAMAWYRQAPGKERELVAANTKRGGSTYYADSVKGRFTISRDNAKNTVYLQMKSLKPEDTAVYYCNALGYWRRVVDGFDNWGQGTQVTVSS | high polyreactivity
QVQLVESGGGLVQAGGSLRVSCAASGRTFGGYAMGWYRQAPGKERELVAAISDRGTSTYYADSVKGRFTISRDNAKNTVYLQMNSLKPEDTAVYYCAARINYWGYYYWGQGTQVTVSS | high polyreactivity
QVQLVESGGGLVQAGGSLRLSCAASGRILYVYAMGRYRQAPGKERELVAAITSGGSTHYADSVKGRFTISRDNAKNTVYLQMNSLKPEDTAVYYCAAYTLRNRGGFNYWGQGTQVTVSS | high polyreactivity
QVQLVESGGGLVQAGGSLRLSCAASGSTYVGYAMGWYRQAPRKERDLVADIDSIGGSTYYADTVKRRFTISRDKAKNTVYLQMNSLKPEDTAVYYCAARRFDTALVLYDYWGQCTQVTVSS | low polyreactivity
QVQLVESGGGLVQAGGSLRLSCAASGSIIVYNTMGWYRQAPGKERELVAAITVRDDSTYYADSVKGRFTISRDYAKNTVYLQMNSLNPEDTAVYYCNARGYFLIGRDYWGQGTQVTVSS | low polyreactivity
QVQLVESGGGLVQAGGSLRLSCAASGFTFTNYVMGWYRQAPGKETELVAAIRRSGDSTYYADSVKGRFTISRDNAKNTVYLQMNSLKPEATAVYYCNAVAYGRTYDYWGQGTQVTVSS | high polyreactivity
QVQLVESGGGLVQAGGSLRLSCPASGRIFQLYAMGWYRQAPGKERELVAAIRYSGDSTYYADSVKGRLTISRDNAKNTVYLQLNSLKPEDTAVYYCAARSRYGYRNKYEYWGQGTQVTVSS | high polyreactivity
QVQLVESGGCLVQAGGSLRLSCAASGRIFQSYAMGWYRQAPGKESELVAAISQSGGSTYYADSVQGRFTISRDNAKNTVYVQMNSLKPEDTAVYYCAARSRWYKRYDYWGQGTQVTVSS | low polyreactivity
QVQLVESGGGLVQAGGSLRLSCAASGFTFATYAMGWYRQAPGKERELVAAITYRGGRTYYADSVKGRFTISRDNAKNTVYLQMNSLKPEDTAVYYCNTVYPRRLIFGYWGQGTQVTVSS | high polyreactivity
QVQLVESGGGLVQAGGSLRLSCAASGSTLRYNTMGWYRQAPGKERELVAAISVRGGSTYYADSVKGRFTISRDNAKNTVYLQMNSLKPEDTAVYYCARRIKLGQRQGGYYWGQGTQVTVSS | high polyreactivity
QVQLVESGGGLVQAGGSLRLSCAASGFIFVRNAMVWYRQAPGIERELVAAIRWSGGSTYYADSVKGRFTISRDNAKNTVYLQMNSLKPEDTAVYYCAKEPPPVKGDYWGQGTQVTVSS | low polyreactivity
